# Experimental data: publication PMC4575908
# Substrate: O=C(O)[C@H]1O[C@@H](Oc2ccc([N+](=O)[O-])cc2)[C@H](O)[C@@H](O)[C@@H]1O
# Assay type: biochemical
# Conditions: 37.0 °C
protein,measurement,value
SaGUS (Streptococcus agalactiae 2603V/R) (protein) MLYPLLTKTRNTYDLGGIWNFKLGEHNPNELLPSDEVMVIPTSFNDLMVSKEKRDYIGDFWYEKVIEVPKVSEDEEMVLRFGSVTHQAKIYVDGVLVGEHKGGFTPFEVLVPECKYNNEKIKVSICANNVLDYTTLPVGNYSEIIQEDGSIKKKVRENFDFFNYAGVHRPLKLMIRPKNHIFDITITSRLSDDLQSADLHFLVETNQKVDEVRISVFDEDNKLVGETKDSRLFLSDVHLWEVLNAYLYTARVEIFVDNQLQDVYEENFGLREIEVTNGQFLLNRKPIYFKGFGKHEDTFINGRGLNEAANLMDLNLLKDMGANSFRTSHYPYSEEMMRLADRMGVLVIDEVPAVGLFQNFNASLDLSPKDNGTWNLMQTKAAHEQAIQELVKRDKNHPSVVMWVVANEPASHEAGAHDYFEPLVKLYKDLDPQKRPVTLVNILMATPDRDQVMDLVDVVCLNRYYGWYVDHGDLTNAEVGIRKELLEWQDKFPDKPIIITEYGADTLPGLHSTWNIPYTEEFQCDFYEMSHRVFDGIPNLVGEQVWNFADFETNLMILRVQGNHKGLFSRNRQPKQVVKEFKKRWMTIPHYHNKKNSVK,Km,360 ± 30 µM
same,kcat,80 ± 2 s⁻¹
same,kcat/Km,224000 M⁻¹ s⁻¹
